{"source": "paper PMC4987126", "about": "(Molecular immunology, 2016)", "target": "T1, synthetic peptide of the C1q A chain, residues 14–26 (collagen region)", "T1 peptide": "AGRPGRRGRPGLK", "assay": "ELISA"}
{"binder": "PWNASWSNKSLDDIWNC", "note": "[gp41-3S, 17-residue synthetic peptide corresponding to the 3S motif of gp41]", "values": [{"measurement": "binding result", "value": "binds"}]}
